Data reported in paper PMC5103067, “Structural basis of GM-CSF and IL-2 sequestration by the viral decoy receptor GIF” (Nature Communications, 2016).

T1: Biotinylated Orf GIF, residues 1-265, C-terminal AviTag (Orf virus, UniProt Q9J5U5, biotin (AviTag, by co-expressed E. coli BirA))
T1 chain: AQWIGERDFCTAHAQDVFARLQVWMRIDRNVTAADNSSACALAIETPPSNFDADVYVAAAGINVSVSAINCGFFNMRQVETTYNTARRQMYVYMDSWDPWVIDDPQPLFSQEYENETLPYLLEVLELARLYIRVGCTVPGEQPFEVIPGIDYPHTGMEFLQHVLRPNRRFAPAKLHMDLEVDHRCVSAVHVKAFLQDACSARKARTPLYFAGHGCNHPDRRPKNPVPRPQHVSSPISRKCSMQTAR

T2: Biotinylated Orf GIF, residues 1-265, C-terminal AviTag (Orf virus, UniProt Q9J5U5, biotin (AviTag, by co-expressed E. coli BirA))
T2 construct: also called biotinylated GIF; wild-type GIF; source: HEK293T, co-transfected with BirA (pDisplayBirA-ER), expression medium desalted into HBS; not shown: AviTag, C-terminal, kept
T2 sequence: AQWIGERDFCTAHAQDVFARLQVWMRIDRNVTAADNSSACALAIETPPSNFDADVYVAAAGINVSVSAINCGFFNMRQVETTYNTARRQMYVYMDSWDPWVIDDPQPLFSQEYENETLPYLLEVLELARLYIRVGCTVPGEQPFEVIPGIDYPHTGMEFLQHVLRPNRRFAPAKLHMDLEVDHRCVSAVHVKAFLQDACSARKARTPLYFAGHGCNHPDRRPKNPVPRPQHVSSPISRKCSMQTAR

T3: Orf virus GM-CSF/IL-2 inhibition factor (GIF), residues 1-265, C-terminal His6-tag (Orf virus, UniProt Q9J5U5, N-linked glycans)
T3 construct: also called His-tagged GIF; Orf GIF; source: HEK293T, transient expression (pHLsec), secreted; alone purified by IMAC and SEC with 0.15% CHAPS
T3 sequence: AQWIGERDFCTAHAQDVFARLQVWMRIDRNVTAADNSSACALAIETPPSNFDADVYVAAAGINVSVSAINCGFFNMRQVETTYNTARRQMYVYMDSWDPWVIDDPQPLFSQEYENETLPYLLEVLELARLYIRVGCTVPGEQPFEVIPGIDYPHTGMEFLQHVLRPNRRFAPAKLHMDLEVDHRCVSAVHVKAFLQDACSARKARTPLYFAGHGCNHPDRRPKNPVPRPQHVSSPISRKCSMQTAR


Legend:
[1] = biological target: GIF K211A, residues 1-265, C-terminal AviTag, biotinylated (Orf virus) (UniProt Q9J5U5); assay: BLI; biotinylated GIF (wild type or mutant) on streptavidin-coated biosensors, quenched with biocytin; ligand GM-CSF 1-8 uM or IL-2 3.75-30 nM; PBS pH 7.4, 0.01% BSA, 0.002% Tween-20; 298 K; Octet RED96; 1:1 interaction model; averages of triplicates
[2] = biological target: GIF H232A, residues 1-265, C-terminal AviTag, biotinylated (Orf virus) (UniProt Q9J5U5); assay: as above
[3] = biological target: GIF R106A/R188A, residues 1-265, C-terminal AviTag, biotinylated (Orf virus) (UniProt Q9J5U5); assay: as above
[4] = biological target: GIF R188A, residues 1-265, C-terminal AviTag, biotinylated (Orf virus) (UniProt Q9J5U5); assay: as above
[5] = biological target: GIF R45A, residues 1-265, C-terminal AviTag, biotinylated (Orf virus) (UniProt Q9J5U5); assay: as above
[6] = biological target: GIF R45A/R106A, residues 1-265, C-terminal AviTag, biotinylated (Orf virus) (UniProt Q9J5U5); assay: as above
[7] = biological target: T1, Biotinylated Orf GIF, residues 1-265, …; assay: BLI
[8] = biological target: T2, Biotinylated Orf GIF, residues 1-265, …; assay: BLI; biotinylated GIF on streptavidin sensors, quenched with biocytin; cytokine in solution (GM-CSF 1-8 μM, IL-2 3.75-30 nM); PBS pH 7.4, 0.01% BSA, 0.002% Tween-20, 298 K; 1:1 model, triplicates; details: one partner purified
[9] = biological target: T3, Orf virus GM-CSF/IL-2 inhibition factor …; assay: SEC-MALS; complexes purified after co-expression of GIF and cytokine in HEK293T; 1-2 mg/ml; Superdex Increase 10/300 GL in HBS pH 7.5, 298 K; details: both partners purified

Binder | Kd [1] [nM] | Kd [2] [nM] | Kd [3] [nM] | Kd [4] [nM] | Kd [5] [nM] | Kd [6] [nM] | koff [7] [s⁻¹] | Kd [8] [nM] | stoichiometry N [9]
ovine IL-2 (interleukin-2), residues 21-155, as used as the ligand in BLI (ligand) APTSSSTGNTMKEVKSLLLDLQLLLEKVKNPENLKLSRMHTFNFYMPKVNATELKHLKCLLEELKLLEEVLDLAPSKNLNTREIKDSMDNIKRIVLELQGSETRFTCEYDDATVKAVEFLNKWITFCQSIYSTMT | 0.46 | 0.63 | 5.3 | 4.8 | 0.69 | 0.45 | – | – | –
ovine GM-CSF (granulocyte macrophage colony-stimulating factor), residues 18-144, as used as the ligand in BLI (ligand) APTRQPSPVTRPWQHVDAIKEALSLLNDSTDTAAVMDETVEVVSEMFDSQEPTCLQTRLELYKQGLRGSLTSLTGSLTMMASHYKKHCPPTQETSCETQIITFKSFKENLKDFLFIIPFDCWEPVQK | 3700 | 670 | 270 | 570 | 280 | 380 | – | – | –
ovine IL-2 as used as ligand in bio-layer interferometry (ligand, UniProt P19114 21-155, looked up, also called oIL-2) APTSSSTGNTMKEVKSLLLDLQLLLEKVKNPENLKLSRMHTFNFYMPKVNATELKHLKCLLEELKLLEEVLDLAPSKNLNTREIKDSMDNIKRIVLELQGSETRFTCEYDDATVKAVEFLNKWITFCQSIYSTMT | – | – | – | – | – | – | 0.00015 | 0.47 | –
ovine GM-CSF as used as ligand in bio-layer interferometry (ligand, UniProt P28773 18-144, looked up, also called oGMCSF; oGM-CSF) APTRQPSPVTRPWQHVDAIKEALSLLNDSTDTAAVMDETVEVVSEMFDSQEPTCLQTRLELYKQGLRGSLTSLTGSLTMMASHYKKHCPPTQETSCETQIITFKSFKENLKDFLFIIPFDCWEPVQK | – | – | – | – | – | – | 6.2e-05 | 27 | –
ovine GM-CSF, residues 18-144, C-terminal His6-tag, from HEK293T (ligand, UniProt P28773 18-144, looked up, also called oGM-CSF; source: HEK293T, transient expression (pHLsec); purified (TALON IMAC, SEC) or co-expressed with GIF and purified as a complex) APTRQPSPVTRPWQHVDAIKEALSLLNDSTDTAAVMDETVEVVSEMFDSQEPTCLQTRLELYKQGLRGSLTSLTGSLTMMASHYKKHCPPTQETSCETQIITFKSFKENLKDFLFIIPFDCWEPVQK | – | – | – | – | – | – | – | – | 2 cytokines per GIF dimer (2:2)
ovine IL-2, residues 21-155, C-terminal His6-tag, from HEK293T (ligand, UniProt P19114 21-155, looked up, also called oIL-2; source: HEK293T, transient expression (pHLsec); purified (TALON IMAC, SEC) or co-expressed with GIF and purified as a complex) APTSSSTGNTMKEVKSLLLDLQLLLEKVKNPENLKLSRMHTFNFYMPKVNATELKHLKCLLEELKLLEEVLDLAPSKNLNTREIKDSMDNIKRIVLELQGSETRFTCEYDDATVKAVEFLNKWITFCQSIYSTMT | – | – | – | – | – | – | – | – | 2 cytokines per GIF dimer (2:2)
